This series has as its system MS2 coat protein. The series is described as follows: apparent KD of MS2 coat protein; higher = weaker reporter binding. The conditions noted are these: Eterna round: R107. In a few lines: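 With or without constant ligand, designed RNA switches in 100 mM Tris-HCl pH 7.5, 80 mM KCl and 4 mM MgCl2 were titrated with SNAP-549-labelled MS2 coat protein. Concentrations went up in twofold steps from 0.7 or 1.5 nM to 3 µM. The switches had been transcribed on-chip from Illumina sequencing clusters, and apparent KD is the per-design median of normalised cluster binding-curve fits.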

Setting [1] is: input ligand: theophylline 20 uM.
Where [2] appears, read: input ligand: tryptophan 2.4 mM.
Setting [3] is: input ligand: theophylline 2 mM.

Consider 15 sequences from the supplement of paper PMC9170038.

With “AUGUUUGUGUGAGAUACCAGUGAGGCCACAUGAGGAUCACCCAUGUCCCUCACUCCGGCCCACCCUUGGCAGCUCUUAUAGAAAA [Exclusion Theophylline B GF 26]”, the “apparent KD of MS2 coat protein” value reads like this: (input ligand: arginine 13.2 mM) 8.81 nM; under setting [1], 15.4 nM; under setting [2], 9.79 nM.
For “AUUAACAUGAGGAUCACCCAUGUUUGUCUCCGAGGACCGGUACGGCCGCCACUCGCAGGUUGGAGUCGCUAUAUGGGCGUUCACU [theeternabot_sameState_MS2_Trp_A_42]”, the “apparent KD of MS2 coat protein” value (input ligand: arginine 13.2 mM) came out at 31.7 nM, the “apparent KD of MS2 coat protein” value under setting [1] was found to be 53.5 nM and the “apparent KD of MS2 coat protein” value under setting [3] is 64.9 nM.
“AUUAAGAAUAUGUAGACGGCGGAGAAGAGACGAGGACCGGUACGGCCGCCACUCGUGUUAGUUAACAUGAGGAUCACCCAUGUUA [#08 Tryptophan A Same State]”: the “apparent KD of MS2 coat protein” value came to 11.9 nM (input ligand: arginine 13.2 mM); 12.1 nM (input ligand: none); 14.1 nM under setting [1]; 12.6 nM under setting [3]; 11.8 nM under setting [2].
Turning to “AUUAAUAGUUGUGAUACCAGACUUACAUGAGGAUCACCCAUGUUACUUAAGUGUUUUGAUGUCCCUUGGCAGCACUGUUUAGUUA [JR_SSTheophyB_Sub016]”, the “apparent KD of MS2 coat protein” value reads like this: (input ligand: arginine 13.2 mM) 24.3 nM; under setting [1], 33 nM; under setting [2], 25 nM.
“AUUAUAGUUUAUAACGAAGUUGAUACAGAAGGAGCGGGAGUAAUCUCAGGUAGGUCGCUGAUAAUACAUGAGGAUCACCCAUGUG [#15 Same State - Arginine A]”: the “apparent KD of MS2 coat protein” value reads like this: (input ligand: arginine 13.2 mM) 17.1 nM; (input ligand: none) 19 nM; under setting [1], 19.4 nM; under setting [3], 24.7 nM; under setting [2], 18.9 nM.
As to “AUUCAUGGAAACAUGACAUACAUAACCGGUCGAGGACCGGUACGGCCGCCACUCGGUUGGUGGCACAUGAGGAUCACCCAUGUUA [SS Tryp A #10]”, the “apparent KD of MS2 coat protein” value came out at 21.7 nM (input ligand: arginine 13.2 mM), 39.3 nM under setting [1] and 28.5 nM under setting [3].
Taken in the same sequence, the figures for “AUUCAUGGAAACAUGACAUAGGGAUCUAUCCGAGGACCGGUACGGCCGCCACUCGCGUGGAGGCACAUGAGGAUCACCCAUGUUA [SS Tryp A #5]” were 71.2 nM, 384 nM and 843 nM.
Take “AUUCUUUACUGAAGGAGCGUCAUUCUUACAUGAGGAUCACCCAUGUUUAUUCUUUAUUAUUGACAGGUAGGUCGCAGAUUUUUUA [JR_SSArginiB_Sub018]”: the “apparent KD of MS2 coat protein” value stood at 15.5 nM (input ligand: arginine 13.2 mM); 13.8 nM (input ligand: none); 17.7 nM under setting [1]; 14.3 nM under setting [3]; 14.3 nM under setting [2].
For the sequence “AUUUACAUGGUCAUAUAUAUAUCGUCAGAUACCAGACUAGAUAUAGUCCCUUGGCAGCUGUUACAUGAGGAUCACCCAUGUUAUA [JR_Nu_ExcTheophyA_Sub019]”, the “apparent KD of MS2 coat protein” value by setting is: (input ligand: arginine 13.2 mM) 41.8 nM; under setting [1], 95.8 nM; under setting [2], 109 nM.
Take “AUUUAUUAGACGGCCGCCACUUGAAAGAGACCUCAUAAAUGGGAACAUGAGGAUCACCCAUGUAAGAGGACCGGGUCUAGUAGAU [TryptB-ms2@45]”: the “apparent KD of MS2 coat protein” value reads like this: (input ligand: arginine 13.2 mM) 55.2 nM; (input ligand: none) 567 nM; under setting [1], 497 nM; under setting [3], 1320 nM; under setting [2], 610 nM.
In the same order, the values of “AUUUGUACUUAGUGUUGAGUUCUGUCGGAAGGAGCGGAAUAUAAUCCAGGUAGGUCGCCGACAGACAUGAGGAUCACCCAUGUAA [#09 Exclusion - Arginine A]” are 28.2 nM, 38.3 nM, 38.9 nM, 34.7 nM and 32.3 nM.
Turning to “CAAAAUUUAACGGCCGCCACUUACUCAUGAGGUAACAACAUGAGGAUCACCCAUGUUUGAGGAUCAAGGACCGGGUUAAAUUUUG [AstrosSSTry#20]”, the “apparent KD of MS2 coat protein” value (input ligand: arginine 13.2 mM) was found to be 26.6 nM, the “apparent KD of MS2 coat protein” value under setting [1] was 33.9 nM and the “apparent KD of MS2 coat protein” value under setting [3] was determined as 30.7 nM.
For “CAAGAACAGCCGAAUCUCGGCAGCUGAGAAGGAGCGCGAGAAGUCGCAGGUAGGUCGCUCAGGAAUACAUGAGGAUCACCCAUGU [Usaronen]”, the “apparent KD of MS2 coat protein” value came to 32.4 nM (input ligand: arginine 13.2 mM); 28.4 nM (input ligand: none); 45.9 nM under setting [1]; 46.8 nM under setting [3]; 27.9 nM under setting [2].
Taken in the same sequence, the figures for “CAAUGCAGGUCGGCCGCCACUACACACAUGAGGAUCACCCAUGUAGUUACUGGGUGAAGUGGCAGUAGGACCGGGACCUGCAUAC [Brourdmod03]” were 246 nM, 290 nM, 423 nM, 772 nM and 807 nM.
As for “CACAGUGCGAAAUUGAAACCGCACGAUCCUCGAGGACCGGUACGGCCGCCACUCGCGCGGGUCGUACAUGAGGAUCACCCAUGUC [Zaarmaqu]”, the “apparent KD of MS2 coat protein” value by setting is: (input ligand: arginine 13.2 mM) 71.8 nM; under setting [1], 351 nM; under setting [3], 869 nM.
